From patent US20220273793A1, “HORSE IL-31 INDUCED PRURITUS MODEL” (priority 2021, published 2022)
Values joined by “and” are separate entries in the source; they are usually repeats but may differ in a detail not shown here. Identical values can stand only once.

Assays:
IL-31 induced pruritus = test: Oclacitinib maleate in equine model of IL-31 induced pruritus; format: in vivo, Horse; set-up: key to Post Treatment Score (pruritus): cumulative count of yes responses (1 per behavior per 1-min interval); details: for Post Treatment Score (pruritus) / % Change vs Historical Score: individual horses
Description: Horses were administered either carrier only or oclacitinib maleate tablets at a determined number of hours prior to IL-31 challenge administration. […] Blood samples for pharmacokinetic analysis were collected at the time of IL-31 administration and immediately following the post-challenge observation period. Due to limited number of observation stalls, horses were challenged in batches. Batch 1 will include T01 (n=2)+T02 (n=5). Batch 2 will include T01 (n=2)+T03 (n=5). Batch 3 will include T01 (n=2)+T04 (n=5) (Table 9)
Signs of pruritus in horses include: • Biting or scratching at self • Rubbing against objects • Feet stomping • Tail flicking • Head or body shaking • Rolling • Twitching of skin
A “yes” response was indicated by marking a “1” in the space provided for the specific behavior during the one minute interval. The cumulative number of yes responses per behavior were added to determine a cumulative pruritus score for each horse.

equine IL-31 = test: Equine challenge study using the IL-31 itch model after IL-31 mimotope vaccines; format: in vivo, Horse
From the text: Based on the high antibody titers elicited by horses vaccinated with CRM197 conjugated IL 31 mimotopes (FIG. 4), horses from the serology studies were utilized in a challenge study using the IL-31 itch model developed by the present inventors. Selected horses were vaccinated with an additional boost of the corresponding mimotope vaccines, after conclusion of the serology study, and were challenged with IL-31 at Day 14 after the final boost and at Day 105 after the final boost.
Various candidate IL-31 mimotope constructs were evaluated, including ZTS-7240 (comprising SEQ ID NO:4) mimotope (constrained) corresponding to the 1505 region and ZTS-241 (comprising SEQ ID NO:6) mimotope (linear) corresponding to the A helix of the IL-31 homology model (FIG. 2). Study design is outlined in Table 6 below:
There were no treatment groups T02 and T04 assigned in this study in order to continue to keep the group designations of respective horses from the first serology study. One horse each from treatment groups T02 and T04 from the first serology were used in treatment group T08 as negative controls (No booster dose given; challenged on Day 14 and Day 105 along with other treatment groups).

Horse = test: Equine IL-31 induced pruritus model via IL-31 challenge (dose finding); format: in vivo
Description: Three to eight horses were tested at one time. Dose level depended on the pruritic response from the previous dosing group. The final desired dose was repeated. The final study design was as follows (Table 1):
Observations of normal pruritic behavior (baseline pruritus scores) were made prior to the administration of IL-31 challenge. The horses were scored the same was as post challenge observations except no IL-31 challenge was administered and observation of normal pruritic behavior was made for 30 minutes.
Following baseline pruritus score, horses were administered the IL-31 challenge. IL-31 challenge was administered intravenously to each animal via a jugular vein. The horse ID and time of administration was recorded. Recording of pruritic activity began approximately 15 to 25 minutes after the last of the horses is administered the IL-31 challenge (Table 2 (A to F) below and FIG. 1).
Classical signs of pruritus in horses include: • Biting or scratching at self • Rubbing against objects • Feet stomping • Tail flicking • Head or body shaking • Rolling • Twitching of skin
A “yes” response was indicated by marking a “1” and a “no” response was indicated by marking a “0” during the one minute interval. The cumulative number of yes responses were added to determine a cumulative Pruritus Score for each horse.

[1] = IL-31 0.05 μg/kg IV, average (Table 2E)
[2] = IL-31 0.1 μg/kg IV, average (Table 2D)
[3] = IL-31 0.25 μg/kg IV, average (Table 2C)
[4] = IL-31 0.25 μg/kg IV, repeat in second set of horses, average (Table 2F)
[5] = IL-31 0.25 μg/kg IV, repeat in second set of horses, individual horses (Table 2F)
[6] = IL-31 0.5 μg/kg IV, average (Table 2B)

Oclacitinib maleate
Post Treatment Score (pruritus) (IL-31 induced pruritus; T02: 0.25 mg/kg oral, IL-31 0.25 mcg/kg challenge 1.5 hr after dosing): 21 and 94 and 91 and 86 and 46
% Change vs Historical Score (IL-31 induced pruritus; T02: 0.25 mg/kg oral, challenge 1.5 hr after dosing): −68.89% and 6.21% and −5.70% and −9.47% and −31.85%
reduction in average pruritic score compared to the placebo group (T01) (IL-31 induced pruritus; T02: 0.25 mg/kg, challenged 1.5 hours after treatment): 30%
Post Treatment Score (pruritus) (IL-31 induced pruritus; T03: 0.25 mg/kg oral, IL-31 0.25 mcg/kg challenge 21.5 hr after dosing): 49 and 90 and 86 and 50 and 72
% Change vs Historical Score (IL-31 induced pruritus; T03: 0.25 mg/kg oral, challenge 21.5 hr after dosing): −3.92% and 65.14% and 17.81% and −29.08% and −5.88%
reduction in average pruritic score compared to the placebo group (T01) (IL-31 induced pruritus; T03: 0.25 mg/kg, challenged 21.5 hours after treatment): 29%
Post Treatment Score (pruritus) (IL-31 induced pruritus; T04: 0.25 mg/kg oral, IL-31 0.25 mcg/kg challenge 4.5 hr after dosing): 49 and 87 and 46 and 53 and 99
% Change vs Historical Score (IL-31 induced pruritus; T04: 0.25 mg/kg oral, challenge 4.5 hr after dosing): −55.05% and −22.32% and −54.23% and −45.92% and −6.16%
reduction in average pruritic score compared to the placebo group (T01) (IL-31 induced pruritus; T04: 0.25 mg/kg, challenged 4.5 hours after treatment): 31%

Ac-C[Ahx]C(mT2b)TEVSMPTDNFERKRFILTC(mT2b)-NH2 [ZTS-7240]
1st Challenge Score (pruritus score) (equine IL-31; T03, T05, T06, T07: IM, CRM197 conjugate 25 μg/dose, SP oil + CpG, IL-31 challenge Day 14 post-boost, individual horses): 6 and 21 and 18
1st Challenge Average % Change in pruritus scores (equine IL-31; T03, T05, T06, T07: IM, Day 14 post-boost, group mean): −84.61%
Percent Change, 1st Challenge vs Historical Score (equine IL-31; T03, T05, T06, T07: IM, Day 14 post-boost, individual horses): −94.13% and −76.74% and −82.94%
2nd Challenge Average % Change in pruritus scores (equine IL-31; T03, T05, T06, T07: IM, Day 105 post-boost, group mean): −84.27%
Percent Change, 2nd Challenge vs Historical Score (equine IL-31; T03, T05, T06, T07: IM, Day 105 post-boost, individual horses): −92.18% and −83.39% and −77.25%
2nd Challenge Score (pruritus score) (equine IL-31; T03, T05, T06, T07: IM, IL-31 challenge Day 105 post-boost, individual horses): 8 and 15 and 24
reduction in itch (relative to historic scores) (equine IL-31; vaccinated horses, after 105 days of the final booster dose): 80%

B1: IL-31: recombinant histidine tagged equine IL-31 polypeptide, SEQ ID NO: 10 less signal sequence, used as IV challenge material (protein)
chain: GPIYQLQPKEIQAIIVELQNLSKKLLDDYLNKEKGVQKFDSDLPSCFTSDSQAPGNINSSAILPYFKAISPSLNNDKSLYIIEQLDKLNFQNAPETEVSMPTDNFERKRFILTILRWFSNCLEHRAQHHHHHH
Post Challenge Pruritus Score/120 (Horse; IL-31 0.05 μg/kg IV, 120 min observation, individual horses (Table 2E)): 50 and 36 and 67 and 43 and 25 and 42 and 45 and 37
Post Challenge Pruritus %, Average (Horse; [1]): 36%
Post Challenge Pruritus Score/120, Average (Horse; [1]): 43.1
Post Challenge Pruritus % (Horse; IL-31 0.05 μg/kg IV, individual horses (Table 2E)): 42% and 30% and 56% and 36% and 21% and 35% and 38% and 31%
Post Challenge Pruritus Score/120 (Horse; IL-31 0.1 μg/kg IV, 120 min observation, individual horses (Table 2D)): 62 and 72 and 115 and 74 and 71 and 86 and 96 and 103
Post Challenge Pruritus %, Average (Horse; [2]): 71%
Post Challenge Pruritus Score/120, Average (Horse; [2]): 84.9
Post Challenge Pruritus % (Horse; IL-31 0.1 μg/kg IV, individual horses (Table 2D)): 52% and 60% and 96% and 62% and 59% and 72% and 80% and 86%
Post Challenge Pruritus Score/120 (Horse; IL-31 0.25 μg/kg IV, 120 min observation, individual horses (Table 2C)): 95 and 84 and 109 and 81 and 86 and 113 (2×)
Post Challenge Pruritus %, Average (Horse; [3]): 81%
Post Challenge Pruritus Score/120, Average (Horse; [3]): 97.3
Post Challenge Pruritus % (Horse; IL-31 0.25 μg/kg IV, individual horses (Table 2C)): 79% and 70% and 91% and 68% and 72% and 94% (2×)
Post Challenge Pruritus %, Average (Horse; [4]): 48%
Post Challenge Pruritus Score/120, Average (Horse; [4]): 57.6
Post Challenge Pruritus % (Horse; [5]): 47% and 17% and 9% and 73% and 57% and 72% and 43% and 68%
Post Challenge Pruritus Score/120 (Horse; [5]): 56 and 20 and 11 and 87 and 68 and 86 and 52 and 81
Post Challenge Pruritus Score/120 (Horse; IL-31 0.5 μg/kg IV, 120 min observation, individual horses (Table 2B)): 120 (2×) and 70 and 117 and 106 and 93 and 110
Post Challenge Pruritus %, Average (Horse; [6]): 88%
Post Challenge Pruritus Score/120, Average (Horse; [6]): 105.1
Post Challenge Pruritus % (Horse; IL-31 0.5 μg/kg IV, individual horses (Table 2B)): 100% (2×) and 58% and 98% and 88% and 78% and 92%
Post Challenge Pruritus Score/120, Average (Horse; IL-31 1.0 μg/kg IV, 120 min observation, average (Table 2A)): 114.7
Post Challenge Pruritus Score/120 (Horse; IL-31 1.0 μg/kg IV, 120 min observation, individual horses (Table 2A)): 120 (2×) and 104
Post Challenge Pruritus %, Average (Horse; IL-31 1.0 μg/kg IV, average (Table 2A)): 96%
Animal health observations after post challenge observation period (Horse; IL-31 1.0 μg/kg IV, first three horses, given diphenhydramine): uncomfortable level of pruritus and needed treatment
Post Challenge Pruritus % (Horse; IL-31 1.0 μg/kg IV, individual horses (Table 2A)): 100% (2×) and 87%
Animal health observations: adverse events of anaphylaxis (Horse; IL-31 0.05-1.0 μg/kg IV, horses): No adverse events of anaphylaxis were noted
